Test results: patent US20170157250A1 (Genmab, published 2017)

Assays:
[1] = target: T1, human AXL (full length, on cells) (human (Homo sapiens), UniProt P30530 26-894); experiment: flow cytometry, HEK-293F cells transfected with full length human AXL, 4-fold dilutions of antibody, PE-anti-human IgG F(ab')2
T1 construct: Used for transfected HEK293 cells and for AXL-positive A431 cells (endogenous AXL); also called hsAXL; Homo sapiens AXL
T1 sequence: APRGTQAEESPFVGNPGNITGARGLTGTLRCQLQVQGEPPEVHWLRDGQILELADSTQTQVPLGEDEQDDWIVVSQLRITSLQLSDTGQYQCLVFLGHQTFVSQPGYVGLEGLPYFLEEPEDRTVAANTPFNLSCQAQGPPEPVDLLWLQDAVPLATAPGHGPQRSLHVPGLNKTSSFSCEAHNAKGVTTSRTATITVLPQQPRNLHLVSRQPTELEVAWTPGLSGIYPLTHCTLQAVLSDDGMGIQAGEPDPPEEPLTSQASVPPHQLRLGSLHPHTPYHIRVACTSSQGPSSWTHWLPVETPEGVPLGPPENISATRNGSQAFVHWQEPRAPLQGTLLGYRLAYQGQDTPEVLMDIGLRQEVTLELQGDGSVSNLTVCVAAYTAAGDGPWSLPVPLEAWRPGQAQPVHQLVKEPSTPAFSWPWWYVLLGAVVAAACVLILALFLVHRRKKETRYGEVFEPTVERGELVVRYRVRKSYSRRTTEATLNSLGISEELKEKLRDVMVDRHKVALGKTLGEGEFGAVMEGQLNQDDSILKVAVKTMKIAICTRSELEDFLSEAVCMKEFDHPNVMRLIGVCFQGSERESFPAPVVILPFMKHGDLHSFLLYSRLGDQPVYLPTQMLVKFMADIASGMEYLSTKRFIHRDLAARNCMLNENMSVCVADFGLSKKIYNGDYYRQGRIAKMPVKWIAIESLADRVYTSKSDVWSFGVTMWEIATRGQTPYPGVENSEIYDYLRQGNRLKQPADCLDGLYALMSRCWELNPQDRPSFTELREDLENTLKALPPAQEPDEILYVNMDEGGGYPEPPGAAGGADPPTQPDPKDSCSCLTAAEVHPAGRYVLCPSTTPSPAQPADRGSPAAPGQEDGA

[2] = target: T1, human AXL (full length, on cells); experiment: flow cytometry, HEK293T cells transiently transfected with full-length human AXL, 4-fold dilutions, PE-anti-human IgG F(ab')2
Experimental: Binding curves were analyzed using non-linear regression (sigmoidal dose-response with variable slope) using GraphPad Prism V5.04 software (GraphPad Software, San Diego, Calif., USA).

Row | Binder | EC50 (read off the curve) [1] [µg/mL] | EC50 (read off the curve) [2] [µg/mL]
1 | IgG1-AXL-107 (antibody, V domains shown, Expressed as IgG1,kappa) VH: EVQLLESGGGLVQPGGSLRLSCAASGFTFSSYAMNWVRQAPGKGLEWVSTTSGSGASTYYADSVKGRFTISRDNSKNTLYLQMNSLRAEDTAVYYCAKIWIAFDIWGQGTMVTVSS VL: not shown | ~0.2 | –
2 | IgG1-AXL-171 (antibody, V domains shown, Expressed as IgG1,kappa) VH: EVQLLESGGGLVQPGGSLRLSCAASGFTFSSYAMSWVRQAPGKGLEWVSDISVSGGSTYYADSVKGRFTISRDNSKNTLYLQMNSLRAEDTAVYYCAKEGYIWFGESLSYAFDIWGQGTMVTVSS VL: not shown | ~0.2 | –
3 | IgG1-AXL-183-A-vcDuo3 (other, The sheet writes '-A-vcDuo3', the text '-vcDuo3'; also called IgG1-AXL-183-vcDuo3; IgG1-AXL-183-vcDuostatin3) heavy chain: QVQLQQWGAGLLKPSETLSLTCAVYGGSFSGYYWSWIRQPPGKGLEWIGEINQSGSTNYNPSLKSRVTISVDTSKNQFSLKLSSVTAADTSVYYCASGNWDHFFDYWGQGTLVTVSS light chain: DIQMTQSPSSVSASVGDRVTITCRASQGISSWLAWYQHKPGKAPKLLIYATSSLQSGVTSRFSGSGSGTDFTLTISSLQPEDFATYYCQQAKSFPWTFGQGTKVEIK | – | ~0.2
